According to patent publication US20170015742A1 (published 2017):

B1: CODV018 (bispecific antibody, human IgG1, kappa, L234A L235A)
heavy: EFVLTQSPGTLSLSPGERATLSCERSSGDIGDSYVSWYQQKPGQAPRLVIYADDQRPSGIPDRFSGSGSGTDFTLTISRLEPEDFAVYYCQSYDINIDIVFGGGTKVEIKGGGSGGGDTVLTQSPATLSLSPGERATLSCRASESVSTHMHWYQQKPGQAPRLLIYGASNLESGVPARFSGSGSGTDFTLTISSLEPEDFAVYFCQQSWNDPFTFGQGTKLEIKGGGSGASTKGPSVFPLAPSSKSTSGGTAALGCLVKDYFPEPVTVSWNSGALTSGVHTFPAVLQSSGLYSLSSVVTVPSSSLGTQTYICNVNHKPSNTKVDKKVEPKSCDKTHTCPPCPAPEAAGGPSVFLFPPKPKDTLMISRTPEVTCVVVDVSHEDPEVKFNWYVDGVEVHNAKTKPREEQYNSTYRVVSVLTVLHQDWLNGKEYKCKVSNKALPAPIEKTISKAKGQPREPQVYTLPPSREEMTKNQVSLTCLVKGFYPSDIAVEWESNGQPENNYKTTPPVLDSDGSFFLYSKLTVDKSRWQQGNVFSCSVMHEALHNAYTQKSLSLSPGK
light: EVQLVQSGSELKKPGASVKVSCKASGYTFTNYGMYWVRQAPGQGLEWMGWINTETGKPTYADDFKGRFVFSLDTSVSTAYLQISSLKAEDTAVYYCARTNYYYRSYIFYFDYWGQGTMVTVSSGEVTLRESGPALVKPTQTLTLTCTFSGFSLSTYGMGVGWIRQPPGKALEWLANIWWDDDKYYNPSLKNRLTISKDTSKNQVVLTMTNMDPVDTATYYCARIESIGTTYSFDYWGQGTMVTVSSGGRTVAAPSVFIFPPSDEQLKSGTASVVCLLNNFYPREAKVQWKVDNALQSGNSQESVTEQDSKDSTYSLSSTLTLSKADYEKHKVYACEVTHQGLSSPVTKSFNRGEC
notes: Anti-human VEGF-A/anti-human PDGF-BB cross-over DVD-Ig (CO-DVD-Ig); also called PR-1571831
B2: CODV019 (bispecific antibody, human IgG1, kappa, L234A L235A)
heavy: DTVLTQSPATLSLSPGERATLSCRASESVSTHMHWYQQKPGQAPRLLIYGASNLESGVPARFSGSGSGTDFTLTISSLEPEDFAVYFCQQSWNDPFTFGQGTKLEIKGGGSGGGGEVTLRESGPALVKPTQTLTLTCTFSGFSLSTYGMGVGWIRQPPGKALEWLANIWWDDDKYYNPSLKNRLTISKDTSKNQVVLTMTNMDPVDTATYYCARIESIGTTYSFDYWGQGTMVTVSSLGGCGGGSASTKGPSVFPLAPSSKSTSGGTAALGCLVKDYFPEPVTVSWNSGALTSGVHTFPAVLQSSGLYSLSSVVTVPSSSLGTQTYICNVNHKPSNTKVDKKVEPKSCDKTHTCPPCPAPEAAGGPSVFLFPPKPKDTLMISRTPEVTCVVVDVSHEDPEVKFNWYVDGVEVHNAKTKPREEQYNSTYRVVSVLTVLHQDWLNGKEYKCKVSNKALPAPIEKTISKAKGQPREPQVYTLPPSREEMTKNQVSLTCLVKGFYPSDIAVEWESNGQPENNYKTTPPVLDSDGSFFLYSKLTVDKSRWQQGNVFSCSVMHEALHNAYTQKSLSLSPGK
light: EFVLTQSPGTLSLSPGERATLSCERSSGDIGDSYVSWYQQKPGQAPRLVIYADDQRPSGIPDRFSGSGSGTDFTLTISRLEPEDFAVYYCQSYDINIDIVFGGGTKVEIKGGGSGGGGEVQLVQSGSELKKPGASVKVSCKASGYTFTNYGMYWVRQAPGQGLEWMGWINTETGKPTYADDFKGRFVFSLDTSVSTAYLQISSLKAEDTAVYYCARTNYYYRSYIFYFDYWGQGTMVTVSSLGGCGGGSRTVAAPSVFIFPPSDEQLKSGTASVVCLLNNFYPREAKVQWKVDNALQSGNSQESVTEQDSKDSTYSLSSTLTLSKADYEKHKVYACEVTHQGLSSPVTKSFNRGEC
notes: Anti-human VEGF-A/anti-human PDGF-BB cross-over DVD-Ig (CO-DVD-Ig); also called PR-1571832

Columns and labels:
Human VEGF-A 165 = target: T1, Human VEGF-A 165 (human, UniProt P15692 207-395); assay: SPR (Biacore), method of Example 1.1
T1 construct: also called hVEGF165
T1 sequence (P15692 other isoform, or with tags, fused parts or gaps limits assumed): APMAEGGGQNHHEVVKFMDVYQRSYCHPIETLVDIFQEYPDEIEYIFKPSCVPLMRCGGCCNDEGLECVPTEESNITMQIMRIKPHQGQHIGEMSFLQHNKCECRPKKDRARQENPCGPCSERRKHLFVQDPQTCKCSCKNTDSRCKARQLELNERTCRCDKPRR

Human PDGF-BB = target: T2, Human PDGF-BB (human, UniProt P01127 82-190); assay: SPR (Biacore), method of Example 1.1
T2 construct: also called hPDGF-BB
T2 sequence (P01127 82-190 limits assumed): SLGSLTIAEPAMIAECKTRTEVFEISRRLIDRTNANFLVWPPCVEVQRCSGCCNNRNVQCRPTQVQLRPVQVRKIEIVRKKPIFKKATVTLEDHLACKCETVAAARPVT

Row | Binder | Kd (Human VEGF-A 165) | Kd (Human PDGF-BB) | kon (Human PDGF-BB) | kon (Human VEGF-A 165)
1 | B1 | 31 nM | 0.0053 nM | 3.5e+07 M⁻¹ s⁻¹ | 
2 | B2 | 0.05 nM | 0.0044 nM | 3.9e+07 M⁻¹ s⁻¹ | 2.9e+06 M⁻¹ s⁻¹
